In ChEMBL document CHEMBL4196070, “Development of Piperazinediones as dual inhibitor for treatment of Alzheimer's disease” (Eur J Med Chem, 2018) one finds Vmax and Km data, which are given here for one protein.

As usually defined, the Vmax is the rate approached at saturating substrate. One may read the Km as the substrate concentration at which the rate is half of its maximum.

Compound in data set [1]: O=C1C(c2ccccc2)N(S(=O)(=O)c2ccc(Cl)cc2)C(=O)C(c2ccccc2)N1S(=O)(=O)c1ccc(Cl)cc1
In words: (§1) Competitive inhibition of human MMP2 assessed as Vmax for substrate at 60 nM preincubated for 60 mins followed by Mca-Pro-Leu-Gly-Leu-Dpa-Ala-Arg-NH substrate addition by Lineweaver-Burk plot analysis (reference value: 3.4 to 3.6 nM/min).

Compound in data set [2]: O=C1C(Cc2ccccc2)N(S(=O)(=O)c2ccc(Cl)cc2)C(=O)C(Cc2ccccc2)N1S(=O)(=O)c1ccc(Cl)cc1
The data set is described as §1.

Compound in data set [3]: O=C1C(c2ccccc2)N(S(=O)(=O)c2ccc(Cl)cc2)C(=O)C(c2ccccc2)N1S(=O)(=O)c1ccc(Cl)cc1
In words: (§2) Competitive inhibition of human MMP2 assessed as Vmax for substrate at 100 nM preincubated for 60 mins followed by Mca-Pro-Leu-Gly-Leu-Dpa-Ala-Arg-NH substrate addition by Lineweaver-Burk plot analysis (reference value: 3.4 to 3.6 nM/min).

Compound in data set [4]: O=C1C(Cc2ccccc2)N(S(=O)(=O)c2ccc(Cl)cc2)C(=O)C(Cc2ccccc2)N1S(=O)(=O)c1ccc(Cl)cc1
The data set is described as §2.

Compound in data set [5]: O=C1C(c2ccccc2)N(S(=O)(=O)c2ccc(Cl)cc2)C(=O)C(c2ccccc2)N1S(=O)(=O)c1ccc(Cl)cc1
In words: (§3) Competitive inhibition of human MMP2 assessed as Km for substrate at 60 nM preincubated for 60 mins followed by Mca-Pro-Leu-Gly-Leu-Dpa-Ala-Arg-NH substrate addition by Lineweaver-Burk plot analysis (reference value: 10 to 25 nM).

Compound in data set [6]: O=C1C(Cc2ccccc2)N(S(=O)(=O)c2ccc(Cl)cc2)C(=O)C(Cc2ccccc2)N1S(=O)(=O)c1ccc(Cl)cc1
The data set is described as §3.

Compound in data set [7]: O=C1C(c2ccccc2)N(S(=O)(=O)c2ccc(Cl)cc2)C(=O)C(c2ccccc2)N1S(=O)(=O)c1ccc(Cl)cc1
Description: (§4) Competitive inhibition of human MMP2 assessed as Km for substrate at 100 nM preincubated for 60 mins followed by Mca-Pro-Leu-Gly-Leu-Dpa-Ala-Arg-NH substrate addition by Lineweaver-Burk plot analysis (reference value: 10 to 25 nM).

Compound in data set [8]: O=C1C(Cc2ccccc2)N(S(=O)(=O)c2ccc(Cl)cc2)C(=O)C(Cc2ccccc2)N1S(=O)(=O)c1ccc(Cl)cc1
The data set is described as §4.

B1: 72 kDa type IV collagenase (Homo sapiens), P08253 (protein)
chain: MEALMARGALTGPLRALCLLGCLLSHAAAAPSPIIKFPGDVAPKTDKELAVQYLNTFYGCPKESCNLFVLKDTLKKMQKFFGLPQTGDLDQNTIETMRKPRCGNPDVANYNFFPRKPKWDKNQITYRIIGYTPDLDPETVDDAFARAFQVWSDVTPLRFSRIHDGEADIMINFGRWEHGDGYPFDGKDGLLAHAFAPGTGVGGDSHFDDDELWTLGEGQVVRVKYGNADGEYCKFPFLFNGKEYNSCTDTGRSDGFLWCSTTYNFEKDGKYGFCPHEALFTMGGNAEGQPCKFPFRFQGTSYDSCTTEGRTDGYRWCGTTEDYDRDKKYGFCPETAMSTVGGNSEGAPCVFPFTFLGNKYESCTSAGRSDGKMWCATTANYDDDRKWGFCPDQGYSLFLVAAHEFGHAMGLEHSQDPGALMAPIYTYTKNFRLSQDDIKGIQELYGASPDIDLGTGPTPTLGPVTPEICKQDIVFDGIAQIRGEIFFFKDRFIWRTVTPRDKPMGPLLVATFWPELPEKIDAVYEAPQEEKAVFFAGNEYWIYSASTLERGYPKPLTSLGLPPDVQRVDAAFNWSKNKKTYIFAGDKFWRYNEVKKKMDPGFPKLIADAWNAIPDNLDAVVDLQGGGHSYFFKGAYYLKLENQSLKSVKFGSIKSDWLGC
Take B1: the Vmax in data set [1] turned out to be 3.4 nM/min; in data set [2], 3.6 nM/min; in data set [3], 3.4 nM/min; in data set [4], 3.6 nM/min. Moreover, the Km was 0.036 µM in data set [5], 0.024 µM in data set [6], 0.07 µM in data set [7] and 0.048 µM in data set [8].
